This passage reports Kd and p300-dependent acetylation of p53 (western blot, Lys373ac), relative rate results from paper PMC8221199.

The term Kd denotes the free concentration of one partner at which half of the binding sites on the other are occupied at equilibrium, for simple one-to-one binding.

Experiment [1] addresses p53 N-terminal peptide (Homo sapiens) (UniProt P04637). The following applies: cited from earlier work.
Experiment [2] has the same target. The following applies: cited from earlier work. This is another data set of the same source.
Experiment [3] has the same target. The following applies: cited from earlier work. The source holds these as a separate data set.
The next experiment deals with acetyltransferase p300 (UniProt Q09472).
Sequence of acetyltransferase p300 (Q09472 whole entry): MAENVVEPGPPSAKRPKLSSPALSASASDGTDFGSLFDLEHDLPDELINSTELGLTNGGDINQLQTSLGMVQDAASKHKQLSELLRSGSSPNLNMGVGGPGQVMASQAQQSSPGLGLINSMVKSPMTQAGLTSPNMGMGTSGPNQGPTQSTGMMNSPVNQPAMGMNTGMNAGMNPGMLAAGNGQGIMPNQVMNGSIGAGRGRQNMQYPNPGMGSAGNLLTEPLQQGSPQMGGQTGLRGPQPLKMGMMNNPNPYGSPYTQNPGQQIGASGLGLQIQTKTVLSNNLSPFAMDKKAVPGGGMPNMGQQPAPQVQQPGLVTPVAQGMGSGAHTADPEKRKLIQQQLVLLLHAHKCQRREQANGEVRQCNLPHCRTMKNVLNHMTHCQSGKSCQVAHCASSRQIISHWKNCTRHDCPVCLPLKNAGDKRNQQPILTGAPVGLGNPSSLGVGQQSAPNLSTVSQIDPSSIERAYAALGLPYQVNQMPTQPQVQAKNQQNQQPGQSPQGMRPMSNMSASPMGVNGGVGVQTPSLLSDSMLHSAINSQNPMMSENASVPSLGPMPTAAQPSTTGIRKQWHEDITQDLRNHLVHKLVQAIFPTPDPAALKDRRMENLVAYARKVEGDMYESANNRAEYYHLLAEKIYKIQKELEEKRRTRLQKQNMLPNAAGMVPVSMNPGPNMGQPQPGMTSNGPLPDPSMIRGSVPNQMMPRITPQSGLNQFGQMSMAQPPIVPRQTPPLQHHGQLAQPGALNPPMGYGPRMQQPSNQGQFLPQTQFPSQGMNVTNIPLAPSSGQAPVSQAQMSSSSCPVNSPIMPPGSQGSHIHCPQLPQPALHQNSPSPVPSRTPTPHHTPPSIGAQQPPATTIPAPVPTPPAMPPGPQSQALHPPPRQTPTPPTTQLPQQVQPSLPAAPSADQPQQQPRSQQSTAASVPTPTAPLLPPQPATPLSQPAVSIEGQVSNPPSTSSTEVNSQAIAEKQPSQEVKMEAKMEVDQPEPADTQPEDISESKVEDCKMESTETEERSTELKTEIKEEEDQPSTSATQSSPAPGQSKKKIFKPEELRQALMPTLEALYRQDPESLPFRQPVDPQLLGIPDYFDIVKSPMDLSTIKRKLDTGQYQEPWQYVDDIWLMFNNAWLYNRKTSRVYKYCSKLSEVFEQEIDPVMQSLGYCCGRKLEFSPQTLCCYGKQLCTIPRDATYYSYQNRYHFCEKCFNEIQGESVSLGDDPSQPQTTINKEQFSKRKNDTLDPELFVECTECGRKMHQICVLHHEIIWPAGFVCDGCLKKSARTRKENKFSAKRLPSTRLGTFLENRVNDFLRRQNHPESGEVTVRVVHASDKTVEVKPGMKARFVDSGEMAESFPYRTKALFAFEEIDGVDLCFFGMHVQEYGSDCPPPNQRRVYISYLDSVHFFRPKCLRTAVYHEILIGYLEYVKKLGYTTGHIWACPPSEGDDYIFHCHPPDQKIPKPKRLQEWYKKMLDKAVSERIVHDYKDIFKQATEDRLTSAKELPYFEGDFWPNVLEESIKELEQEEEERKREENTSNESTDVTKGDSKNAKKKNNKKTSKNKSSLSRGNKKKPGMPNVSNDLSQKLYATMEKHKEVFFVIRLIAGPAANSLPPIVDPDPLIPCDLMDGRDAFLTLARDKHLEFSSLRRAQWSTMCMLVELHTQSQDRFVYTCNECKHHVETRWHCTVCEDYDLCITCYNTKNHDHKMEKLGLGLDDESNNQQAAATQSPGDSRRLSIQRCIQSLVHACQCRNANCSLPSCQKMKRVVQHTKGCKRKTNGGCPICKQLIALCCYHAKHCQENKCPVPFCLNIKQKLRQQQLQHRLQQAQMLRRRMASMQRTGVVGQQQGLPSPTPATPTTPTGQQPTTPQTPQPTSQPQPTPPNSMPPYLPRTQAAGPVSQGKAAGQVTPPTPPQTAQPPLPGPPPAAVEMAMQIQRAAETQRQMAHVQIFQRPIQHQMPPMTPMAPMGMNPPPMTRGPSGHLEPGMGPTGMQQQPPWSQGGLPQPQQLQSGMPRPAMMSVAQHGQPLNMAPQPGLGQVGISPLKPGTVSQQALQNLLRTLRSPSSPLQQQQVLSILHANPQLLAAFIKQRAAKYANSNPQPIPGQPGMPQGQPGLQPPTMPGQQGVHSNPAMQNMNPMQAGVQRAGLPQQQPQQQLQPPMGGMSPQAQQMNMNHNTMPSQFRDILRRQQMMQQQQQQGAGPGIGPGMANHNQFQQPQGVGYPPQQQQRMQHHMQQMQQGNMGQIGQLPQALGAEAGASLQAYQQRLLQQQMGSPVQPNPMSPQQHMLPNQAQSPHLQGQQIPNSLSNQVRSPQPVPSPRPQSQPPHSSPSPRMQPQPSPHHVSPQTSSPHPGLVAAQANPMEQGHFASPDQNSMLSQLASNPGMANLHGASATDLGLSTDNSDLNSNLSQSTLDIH
The target of experiment [4] is p53 N-terminal peptide (Homo sapiens) (UniProt P04637). The following applies: cited from earlier work. This is another data set of the same source.

Like-named read-outs stand apart in the source and are kept apart here.

Sequence of p300 Kix (Q09472 563-648): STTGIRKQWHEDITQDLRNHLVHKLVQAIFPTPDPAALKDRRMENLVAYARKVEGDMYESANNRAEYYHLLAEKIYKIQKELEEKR
Sequence of p300 IBiD (Q09472 2050-2094): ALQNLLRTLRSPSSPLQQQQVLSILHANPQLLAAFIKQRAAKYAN
Sequence of p300 Taz1 (Q09472 323-423): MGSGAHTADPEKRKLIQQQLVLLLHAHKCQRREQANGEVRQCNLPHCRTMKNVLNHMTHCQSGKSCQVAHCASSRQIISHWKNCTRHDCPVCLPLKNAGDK
Sequence of p300 Taz2 (Q09472 1723-1812): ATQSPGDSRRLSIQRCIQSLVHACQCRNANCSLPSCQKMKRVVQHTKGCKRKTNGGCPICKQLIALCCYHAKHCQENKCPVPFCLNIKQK

For p300 Taz2 (from UniProt Q09472), the Kd in experiment [1] is 20 nM. Turning to p300 Kix (from UniProt Q09472), the Kd in experiment [2] is 3000 nM. Turning to p300 Taz1 (from UniProt Q09472), the Kd in experiment [3] was 1000 nM. On to “semi-synthetic full-length p53 with phosphoserine at positions 15 and 20 (from UniProt P04637 1-393) (natural protein)”, for which, in the experiment with acetyltransferase p300, the p300-dependent acetylation of p53 (western blot, Lys373ac), relative rate amounted to 2.3 fold. For the substance p300 IBiD (from UniProt Q09472), the Kd in experiment [4] is 8000 nM.
